The text below walks through data of publication PMC2680549.

This experiment has as its target N-terminal domain of Bag2 (Bag2-NTD). The experiment is described as follows: SEC. (In general: In gel filtration, larger molecules generally elute earlier.)

Chain of N-terminal domain of Bag2 (Bag2-NTD) (domain or fragment) (Q91YN9 104-194): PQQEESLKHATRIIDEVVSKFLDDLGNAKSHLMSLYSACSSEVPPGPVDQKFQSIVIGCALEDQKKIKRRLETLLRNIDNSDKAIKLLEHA

What is called stoichiometry N is the number of molecules, sites or subunits per partner or assembly. “N-terminal domain of Bag2 (Bag2-NTD) (domain or fragment)” came in with a stoichiometry N of 2.
